Consider 1 substance from paper PMC2664613.

As usually defined, the Kd is the free concentration of one partner at which half of the binding sites on the other are occupied at equilibrium, for simple one-to-one binding. A high value points to a looser complex.

The target of the assay is F-actin (rabbit muscle actin polymerised in vitro) (rabbit) (UniProt P68135). The assay is described as follows: co-sedimentation.

As for “GST-PICK1 (from UniProt Q9EP80 1-416) (natural protein)”, the Kd worked out at 300 nM.
